Assay results published in patent US20230272029A1, “CO-AGONISTS AT GLP-1 AND GIP RECEPTORS SUITABLE FOR ORAL DELIVERY” (Novo Nordisk A/S, priority 2020, published 2023).
Marks after values point to notes of the source that are not given here. Starred links: 1 amine or outer side, 2 acyl side, 3 side chain; linkers in the order of their positions; H or OH if unused. Non-standard residues stand in square brackets, D forms with d. Residues, ends and D or L forms follow the SMILES beside them. Groups on a side chain read outwards from the residue. No end group written: not given here. *: point of attachment. C20 diacid = O=C(O)CCCCCCCCCCCCCCCCCCC(=O)*; C18 diacid = O=C(O)CCCCCCCCCCCCCCCCC(=O)*; γGlu = O=C(O)[C@H](CCC(=O)[*:2])N[*:1]; εLys = N[C@@H](CCCCN[*:1])C(=O)[*:2]; AEEA = NCCOCCOCC(=O)O; Aib = CC(C)(N)C(=O)O

Experiments:
[1] = Pharmacokinetic study in dogs after oral dosing of tablets with SNAC; format: in vivo, Beagle dogs; conditions: dog, in vivo, po
Experimental: The purpose of this example is to determine the half-life and plasma exposure in vivo of the compounds of the present invention after p.o. administration to beagle dogs, i.e. the terminal half-life and concentration of test substance that reaches circulation with time. This is done in a pharmacokinetic (PK) study, where these parameters of the compound in question are determined. By terminal half-life is generally meant the period of time it takes to halve a certain plasma concentration, measured after the initial distribution phase.
The amount of SNAC in the tablet composition was 100-300 mg, the amount of magnesium stearate in the tablet composition was 7.7 mg, and the target amount of each test substance in the tablet composition was 3-4 mg.
Male beagle dogs, 1-7 years of age and weighing 9-17 kg during the study period, were included in the study. The dogs were dosed in a fasting state. The dogs were group housed in pens (12 hours light: 12 hours dark), and fed individually and restrictedly once daily with Royal Canin Medium Adult dog food (Royal Canin Products, China Branch, or Brogaarden A/S, Denmark). The dogs were used for repeated PK studies with a suitable wash-out period between successive dosing. An appropriate acclimatization period was given prior to initiation of the first PK study. All handling, dosing, and blood sampling of the animals were performed by trained and skilled staff. Before the studies, the dogs were fasted overnight and from 0 to 4 hours after dosing. The dogs were restricted to water 1 hour before dosing until 4 hours after dosing, but otherwise had ad libitum access to water during the whole period.
The compositions were administered by a single oral dosing to the dogs in groups of 6-8 dogs. […] The mouth was then closed, and 10 mL of tap water was given by syringe or gavage to facilitate swallowing of the tablet.
For each blood sample time point, approximately 0.8 mL of whole blood was collected in a 1.5 mL EDTA-coated tube, which was gently turned to mix the sample with EDTA. Blood samples were collected in EDTA buffer (8 mM) and then centrifuged at 4° C. and 2000g for 10 minutes. Plasma was pipetted into Micronic tubes on dry ice, and kept at −20° C. or lower until analysis. Blood samples were taken as appropriate, for example from a venflon in the cephalic vein in the front leg for the first 2 hours and then with syringe from the jugular vein for the rest of the time points. The first few drops were allowed to drain from the venflon to avoid heparin saline from the venflon in the sample.
All blood samples were collected into test tubes containing EDTA for stabilisation and kept on ice until centrifugation. Plasma was separated from whole blood by centrifugation and the plasma was stored at −20° C. or lower until analysis.
The plasma was analysed for test substance using LC-MS (Liquid Chromatography-Mass Spectrometry) as known to the person skilled in the art. […] RP-HPLC separation was achieved using a linear gradient of 1:1 acetonitrile/methanol in 1% aqueous formic acid using either: a Phenomenex Onyx Monolithic C18 column (50×2.0 mm) and a flow rate of 0.8 mL/min at 30° C.; or an Agilent Poroshell 120 SB-C18 column (50×2.1 mm, 2.7 μm) at a flow rate of 0.4 mL/min at 60° C. The mass spectrometer was operated in either positive ionization SIM mode or positive ionization PRM mode.
For each individual animal, a plasma concentration-time profile was analysed by a non-compartmental model in Pharsight Phoenix WinNonLin ver. 6.4 software or other relevant software for PK analysis, and the resulting terminal half-life (t1/2), maximum plasma concentration per dose (Cmax/D), time for maximum plasma concentration (tmax), and area under the curve to infinity per dose (AUC/D) were determined. Summary statistics of pharmacokinetic results were presented as median (for tmax), harmonic mean ([…]), or arithmetic mean (Cmax, AUC).

human GLP-1 receptor = human GLP-1 receptor (human, UniProt P43220 24-463); test: cell-based or functional assay
human GIP receptor = target: T1, human GIP receptor (human, UniProt P48546 22-466); test: cell-based or functional assay
T1 sequence (looked up): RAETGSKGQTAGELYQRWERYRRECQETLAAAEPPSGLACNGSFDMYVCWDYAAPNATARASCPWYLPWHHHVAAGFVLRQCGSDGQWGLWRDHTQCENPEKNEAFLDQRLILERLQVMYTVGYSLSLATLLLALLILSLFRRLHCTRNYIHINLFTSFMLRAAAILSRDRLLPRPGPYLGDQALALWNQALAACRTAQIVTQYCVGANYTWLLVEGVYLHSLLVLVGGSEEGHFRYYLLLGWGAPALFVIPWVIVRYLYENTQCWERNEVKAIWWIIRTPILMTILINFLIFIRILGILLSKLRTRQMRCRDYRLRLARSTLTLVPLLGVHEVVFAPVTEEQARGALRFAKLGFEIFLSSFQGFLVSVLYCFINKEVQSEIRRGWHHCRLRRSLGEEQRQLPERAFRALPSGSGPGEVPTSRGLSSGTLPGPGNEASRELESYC

Row | Molecule | Cmax/Dose [1] | hGLP-1R, CRE Luc 0% HSA EC50 (pM) (human GLP-1 receptor) | hGLP-1R, CRE Luc 1% HSA EC50 (pM) (human GLP-1 receptor) | hGIPR, CRE Luc 0% HSA EC50 (pM) (human GIP receptor) | hGIPR, CRE Luc 1% HSA EC50 (pM) (human GIP receptor)
1 | CC[C@H](C)[C@H](NC(=O)[C@H](Cc1ccccc1)NC(=O)[C@H](CCC(=O)O)NC(=O)[C@H](CCCNC(=N)N)NC(=O)[C@H](C)NC(=O)[C@H](C)NC(=O)[C@H](CCC(N)=O)NC(=O)[C@H](CCCCNC(=O)COCCOCCNC(=O)COCCOCCNC(=O)CC[C@H](NC(=O)CCCCCCCCCCCCCCCCC(=O)O)C(=O)O)NC(=O)[C@H](CCC(=O)O)NC(=O)[C@H](CC(C)C)NC(=O)[C@H](CC(C)C)NC(=O)[C@@H](NC(=O)[C@H](CO)NC(=O)[C@H](Cc1ccc(O)cc1)NC(=O)[C@H](CC(=O)O)NC(=O)[C@H](CO)NC(=O)[C@@H](NC(=O)[C@H](Cc1ccccc1)NC(=O)[C@@H](NC(=O)CNC(=O)[C@H](CCC(=O)O)NC(=O)C(C)(C)NC(=O)[C@@H](N)Cc1ccc(O)cc1)[C@@H](C)O)[C@@H](C)O)[C@@H](C)CC)C(=O)N[C@@H](CCC(=O)O)C(=O)N[C@@H](Cc1c[nH]c2ccccc12)C(=O)N[C@@H](CC(C)C)C(=O)N[C@@H](CC(C)C)C(=O)N[C@@H](C)C(=O)NCC(=O)NCC(=O)N1CCC[C@H]1C(=O)N[C@@H](CO)C(=O)N[C@@H](CO)C(=O)NCC(=O)N[C@@H](C)C(=O)N1CCC[C@H]1C(=O)N1CCC[C@H]1C(=O)N1CCC[C@H]1C(=O)N[C@@H](CO)C(=O)O [Compound No. 32] (H-Y[Aib]EGTFTSDYSILLEK([AEEA-AEEA-γGlu-C18 diacid])QAAREFIEWLLAGGPSSGAPPPS-OH) | 0.45* kg/L | – | – | – | –
2 | YAEGTFTSDYSIYLEK([εLys-εLys-γGlu-C18 diacid])QAAREFINWLLAGGPSSGAPPPS-OH (N-terminus assumed; SMILES CC[C@H](C)[C@H](NC(=O)[C@H](Cc1ccccc1)NC(=O)[C@H](CCC(=O)O)NC(=O)[C@H](CCCNC(=N)N)NC(=O)[C@H](C)NC(=O)[C@H](C)NC(=O)[C@H](CCC(N)=O)NC(=O)[C@H](CCCCNC(=O)[C@@H](N)CCCCNC(=O)[C@@H](N)CCCCNC(=O)CC[C@H](NC(=O)CCCCCCCCCCCCCCCCC(=O)O)C(=O)O)NC(=O)[C@H](CCC(=O)O)NC(=O)[C@H](CC(C)C)NC(=O)[C@H](Cc1ccc(O)cc1)NC(=O)[C@@H](NC(=O)[C@H](CO)NC(=O)[C@H](Cc1ccc(O)cc1)NC(=O)[C@H](CC(=O)O)NC(=O)[C@H](CO)NC(=O)[C@@H](NC(=O)[C@H](Cc1ccccc1)NC(=O)[C@@H](NC(=O)CNC(=O)[C@H](CCC(=O)O)NC(=O)[C@H](C)NC(=O)[C@@H](N)Cc1ccc(O)cc1)[C@@H](C)O)[C@@H](C)O)[C@@H](C)CC)C(=O)N[C@@H](CC(N)=O)C(=O)N[C@@H](Cc1c[nH]c2ccccc12)C(=O)N[C@@H](CC(C)C)C(=O)N[C@@H](CC(C)C)C(=O)N[C@@H](C)C(=O)NCC(=O)NCC(=O)N1CCC[C@H]1C(=O)N[C@@H](CO)C(=O)N[C@@H](CO)C(=O)NCC(=O)N[C@@H](C)C(=O)N1CCC[C@H]1C(=O)N1CCC[C@H]1C(=O)N1CCC[C@H]1C(=O)N[C@@H](CO)C(=O)O) [Compound No. 17] | – | 5.2 pM | 257 pM | 34.9 pM | 1320 pM
3 | Y[Aib]EGTFTSDYSIYLEK([εLys-εLys-γGlu-C20 diacid])QAAREFINWLLAGGPSSGAPPPS-OH (N-terminus assumed; SMILES CC[C@H](C)[C@H](NC(=O)[C@H](Cc1ccccc1)NC(=O)[C@H](CCC(=O)O)NC(=O)[C@H](CCCNC(=N)N)NC(=O)[C@H](C)NC(=O)[C@H](C)NC(=O)[C@H](CCC(N)=O)NC(=O)[C@H](CCCCNC(=O)[C@@H](N)CCCCNC(=O)[C@@H](N)CCCCNC(=O)CC[C@H](NC(=O)CCCCCCCCCCCCCCCCCCC(=O)O)C(=O)O)NC(=O)[C@H](CCC(=O)O)NC(=O)[C@H](CC(C)C)NC(=O)[C@H](Cc1ccc(O)cc1)NC(=O)[C@@H](NC(=O)[C@H](CO)NC(=O)[C@H](Cc1ccc(O)cc1)NC(=O)[C@H](CC(=O)O)NC(=O)[C@H](CO)NC(=O)[C@@H](NC(=O)[C@H](Cc1ccccc1)NC(=O)[C@@H](NC(=O)CNC(=O)[C@H](CCC(=O)O)NC(=O)C(C)(C)NC(=O)[C@@H](N)Cc1ccc(O)cc1)[C@@H](C)O)[C@@H](C)O)[C@@H](C)CC)C(=O)N[C@@H](CC(N)=O)C(=O)N[C@@H](Cc1c[nH]c2ccccc12)C(=O)N[C@@H](CC(C)C)C(=O)N[C@@H](CC(C)C)C(=O)N[C@@H](C)C(=O)NCC(=O)NCC(=O)N1CCC[C@H]1C(=O)N[C@@H](CO)C(=O)N[C@@H](CO)C(=O)NCC(=O)N[C@@H](C)C(=O)N1CCC[C@H]1C(=O)N1CCC[C@H]1C(=O)N1CCC[C@H]1C(=O)N[C@@H](CO)C(=O)O) [Compound No. 16] | – | 3.1 pM | 321 pM | 13.4 pM | 804 pM
4 | Y[Aib]EGTFTSDYSIYLEEK([εLys-εLys-γGlu-C18 diacid])AAREFINWLLAGGPSSGAPPPS-OH (N-terminus assumed; SMILES CC[C@H](C)[C@H](NC(=O)[C@H](Cc1ccccc1)NC(=O)[C@H](CCC(=O)O)NC(=O)[C@H](CCCNC(=N)N)NC(=O)[C@H](C)NC(=O)[C@H](C)NC(=O)[C@H](CCCCNC(=O)[C@@H](N)CCCCNC(=O)[C@@H](N)CCCCNC(=O)CC[C@H](NC(=O)CCCCCCCCCCCCCCCCC(=O)O)C(=O)O)NC(=O)[C@H](CCC(=O)O)NC(=O)[C@H](CCC(=O)O)NC(=O)[C@H](CC(C)C)NC(=O)[C@H](Cc1ccc(O)cc1)NC(=O)[C@@H](NC(=O)[C@H](CO)NC(=O)[C@H](Cc1ccc(O)cc1)NC(=O)[C@H](CC(=O)O)NC(=O)[C@H](CO)NC(=O)[C@@H](NC(=O)[C@H](Cc1ccccc1)NC(=O)[C@@H](NC(=O)CNC(=O)[C@H](CCC(=O)O)NC(=O)C(C)(C)NC(=O)[C@@H](N)Cc1ccc(O)cc1)[C@@H](C)O)[C@@H](C)O)[C@@H](C)CC)C(=O)N[C@@H](CC(N)=O)C(=O)N[C@@H](Cc1c[nH]c2ccccc12)C(=O)N[C@@H](CC(C)C)C(=O)N[C@@H](CC(C)C)C(=O)N[C@@H](C)C(=O)NCC(=O)NCC(=O)N1CCC[C@H]1C(=O)N[C@@H](CO)C(=O)N[C@@H](CO)C(=O)NCC(=O)N[C@@H](C)C(=O)N1CCC[C@H]1C(=O)N1CCC[C@H]1C(=O)N1CCC[C@H]1C(=O)N[C@@H](CO)C(=O)O) [Compound No. 38] | – | 3.1 pM | 259 pM | 12.4 pM | 815 pM
